This passage reports Fold Increase and peak channel results from patent US20050232933A1, “CMV-IE1 peptides and method of use” (priority 2003, published 2005).

Experiment [1] concerns the target HLA A*0201 molecule on the surface of T2 cells (human). The note with it: remark: other sources report otherwise.
For experiment [2] the target is unchanged. Briefly: T2 cell HLA-A2 stabilisation, 100 µM peptide for 18 h, BB7.2 flow cytometry.
Experiment [3] has the same target. The experiment is described as follows: T2 cell HLA-A2 stabilisation; fold over the mean of no peptide and HLA mismatch B7 peptide.

Where two headings read alike, the source gives them in different places.

In experiment [1], TPRVTGGGAM (modifications not checked) [(-)control B7 T10M] came in with a Fold Increase of 1 fold and a peak channel of 232.

For the molecule LLSEFCRVL (modifications not checked) [IE1p304-312], the peak channel in experiment [2] is 433. Also, the Fold Increase in experiment [3] is 1.8 fold.

In experiment [2], VLAELVKQI (modifications not checked) [IE1p81-89] showed a peak channel of 495. Besides, the Fold Increase in experiment [3] came out at 2 fold.
